Laboratory results reported in patent US20240102021A1.

Target: MC1R (endogenous, MNT-1 cells) (human) (UniProt Q01726)
Assay: cell-based or functional assay

UniProt Q01726, sequence (Q01726 whole entry): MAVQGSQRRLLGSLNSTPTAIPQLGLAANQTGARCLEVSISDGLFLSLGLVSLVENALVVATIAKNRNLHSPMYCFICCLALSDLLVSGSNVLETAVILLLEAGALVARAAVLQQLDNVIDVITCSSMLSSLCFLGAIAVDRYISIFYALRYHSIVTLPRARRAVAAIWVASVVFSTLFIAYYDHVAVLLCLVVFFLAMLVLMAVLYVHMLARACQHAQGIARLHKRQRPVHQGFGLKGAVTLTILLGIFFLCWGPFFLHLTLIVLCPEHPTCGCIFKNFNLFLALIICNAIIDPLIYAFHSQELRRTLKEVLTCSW

Row | increase in cellular cAMP on αMSH stimulation (Epac H187 FRET, normalized to FSK+IBMX), MNT-1 cells expressing OPN3-MCh | increase in cellular cAMP (Epac H187 FRET ratio CFP/YFP, normalized to FSK+IBMX), control MCh-expressing MNT-1 cells | Substance
1 | 10% | – | OPN3-cMCh (from UniProt Q9H1Y3 1-402) (receptor)
2 | – | 50% | NDP-αMSH (peptide)
